Measurements reported in patent US20190248902A1 (published 2019).

T1: recombinant, soluble human ASGR-1 (human, UniProt P07306 62-291)
T1 construct: biotinylated in the binning assay; also called soluble huASGR-1; Soluble ASGR-1 (Amgen)
T1 sequence: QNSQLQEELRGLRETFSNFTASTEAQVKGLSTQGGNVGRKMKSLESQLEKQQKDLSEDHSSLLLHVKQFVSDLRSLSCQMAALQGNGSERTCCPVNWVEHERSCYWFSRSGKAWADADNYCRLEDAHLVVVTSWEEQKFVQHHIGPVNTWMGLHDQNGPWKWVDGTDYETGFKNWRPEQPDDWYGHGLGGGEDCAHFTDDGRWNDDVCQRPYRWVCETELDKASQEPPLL

B1: 64E2 (antibody, V domains shown)
VH: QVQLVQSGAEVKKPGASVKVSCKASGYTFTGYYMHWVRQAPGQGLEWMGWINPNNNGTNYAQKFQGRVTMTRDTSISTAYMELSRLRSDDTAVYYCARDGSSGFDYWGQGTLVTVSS
VL: DIQMTQSPSSVSASVGDRVTITCRASQGISRWLAWYQQKPGKAPKLLIYAASSLQSGVPSRFSGSGSGTDFTLTISSLQPEDFATYYCQQANSFPFTFGPGTKVDIK
notes: hybridoma mAb
B2: 4H6 (antibody, V domains shown)
VH: QVQLVQSGAEVKKPGASVKVSCKASGYTFTDYYLHWVRQAPGQGLEWMGWIHPNSGGTNYAQKFQGRVTMTRDTSISTAYMGLSSLRSDDTAVYYCARDGTSSFDYWGQGTLVTVSS
VL: DIQMTQSPSSVSASVGDRVTITCRASQGISRWLAWYQQKPGKAPKLLIYGASSLQSGVPSRFSGSGSGTDFTLTISSLQPEDFAIYYCQQANSFPFTFGPGTKVDIK
notes: hybridoma mAb
B3: 10G6 (antibody, V domains shown)
VH: QVQLVQSGAEVKKPGASVKVSCKASGYTFTAYHMHWVRQAPGQGLEWMGWINPNNNGTNYAQKFQGRVTMTRDTSISTAYMELSRLRSDDTAVYYCGRDVTSSFDYWGQGTLVTVSS
VL: DIQMTQSPSSVSASVGDRVTITCRASQGISKWLAWYQQKPGKAPKILIYAAYSLQSGVPARFSGSGSGTDFTLTIRSLQPEDFATYYCQQANSFPFTFGPGTKVDIK
notes: hybridoma mAb
B4: 49F10 (antibody, V domains shown)
VH: QVQLVQSGAEVKKPGASVKVSCKASGYTFTGYHMHWVRQAPGQGLEWMGWINPNNNATNYAQNFQGRVTLTRDTSISTAYMELSRLRSDDTAVYYCARDGTSSFDFWGQGTLVTVSS
VL: DIQMTQSPSSVSASVGDRVTITCRASQGISRWLAWYQQKPGKAPKVLIYAASTLQSGVPSRFSGSGSGTDFTLTISSLQPEDFATYYCQQANSFPFTFGPGTKVDIK
notes: hybridoma mAb
B5: 50D4 (antibody, V domains shown)
VH: QVQLVQSGAEVKKPGASVKVSCKASGYTFTGYHMHWVRQAPGQGLEWMGWINPNNNATNYAQSFQGRVTLTRDTSISTAYMELSRLRSDDTAVYYCARDGTSSFDFWGQGTLVTVSS
VL: DIQMTQSPSSVSASVGDRLTITCRASQGISRWLAWYQQKPGKAPKVLIYAASTLQSGVPSRFSGSGSGTDFTLTISSLQPEDFATYYCQQANSFPFTFGPGTKVDIR
notes: hybridoma mAb
B6: 51E9 (antibody, V domains shown)
VH: QVQLVQSGAEVKKPGASVKVSCKASRYTFTGYHIHWVRQAPGQGLEWMGWINPNTNGTQYAQKFQGRVTMTRDTSISTAYMELSRLRSDDTAVYYCARDGTSSFDYWGQGTLVTVSS
VL: DIQMTQSPSSVSASVGDRVTITCRASQGISSWLAWYQQKPGKAPKLLIYVASSLQSGVPSRFSGSGSGTDFTLTIRSLQPEDFATYYCQQAKSFPFTFGPGTKVDIK
notes: hybridoma mAb
B7: 52G11 (antibody, V domains shown)
VH: QVQLVQSGAEVKKPGASVKVSCKASGYTFTGYYLHWVRQAPGQGLEWMGWINPNRNGTNYAQKFQGRVTMTRDTSISTAFMELSRLRSDDTAVYYCARDGTSSFDYWGQGTLVTVSS
VL: DIQMTQSPSSVSASVGDRVTITCRASQGISKWLAWYQQKPGKAPKLLLYAASSLQSGVPSRFSASGSGTDFTLTISSLQPEDFATYYCQQANSFPFTFGPGTKVDVK
notes: hybridoma mAb
B8: 53F2 (antibody, V domains shown)
VH: QVQLVQSGAEVKKPGASVKVSCKASGYTFTGYYLHWVRQAPGQGLEWMGWINPNRNGTNYAQNFQGRVTMTRDTSISTAYMELSRLKSDDTAVYYCARDGTSSFDYWGQGTLVTVSS
VL: DIQMTQSPSSVSASVGDRVTITCRASQGISKWLAWYQQKPGKAPNLLLYAASSLQSGVPSKFSGSGSGTDFTLTISSLQPEDFATYYCQQANSFPFTFGPGTKVDVK
notes: hybridoma mAb
B9: 53F7 (antibody, V domains shown)
VH: QVQLVQSGAEVKKPGASVKVSCKASGYTFTGYHMHWVRQAPGQGLEWMGWINPNNNGTNYAQKFQGRVTMTRDTSISTAYMELNRLTSDDTAVYYCARDGTSSFDYWGQGTLVTVSS
VL: DIQMSQSPSSVSASVGDRVTITCRASQGISRWLAWYQQKPGKAPNLLIYAASSLQSGVPSRFSGSGSGTDFTLTISSLQPEDFAIYYCQQANSFPFTFGPGTKVDIK
notes: hybridoma mAb
B10: 55B1 (antibody, V domains shown)
VH: QVQLVQSGAEVKKPGASVKVSCKASGYTFTGYYFHWVRQAPGQGLEWMGWIHPNNNATNYAQKFQGRVTMTRDTSISTAYMELSRLRSDDTAVYYCAKDGRSSFDYWGQGTLVTVSS
VL: DIQMTQSPSSVSASVGDRVTITCRASQVISRWLAWYQQKPGKAPNLLIYAASSLQSGVPSRFSGSGSGTDFTLTISSLQPEDFATYYCQQANSFPFTFGPGTKVDLK
notes: hybridoma mAb
B11: 56E5 (antibody, V domains shown)
VH: QVQLVQSGAEVKKPGASVKVSCQASGYTFTGYHMHWVRQAPGQGLEWMGWINPNNNATNYAQKFQGRVTMTRDTSISTAYMELRRLRSDDTAVYHCARDGTSSFDYWGQGTLVTVSS
VL: DIQMTQSPSSVSASVGDRVTITCRASQGIRKWLAWYQQKPGKAPKLLIYAASSLQSGVPSRFSGSGSGTDFTLTISSLQPEDFATYYCQQANSFPFTFGPGTKVDIK
notes: hybridoma mAb
B12: 57A7 (antibody, V domains shown)
VH: QVQLVQSGAEVKKPGASVKVSCKASGYTFTGYHIHWVRQAPGQDLEWMGWINPNNNGTNYAQKFQGRVTMTRDTSISTAYMELSRLRSDDTAVYYCARDGRSGFDYWGQGTLVTVSS
VL: DIQMTQSPSSVSASVGDRVTITCRASQGISRWLAWYQQKPGKAPNLLIYAASNLQSGVPSRFSGSGSGTDFTLTISSLQPEDFATYYCQQANSFPFTFGPGTKVDIK
notes: hybridoma mAb
B13: 70D1 (antibody, V domains shown)
VH: QVQLVQSGAEVKKPGASVKVSCKASGYTFTGYHMHWVRQAPGQGLEWMGWINPNSNATNYAQKFQGRVTMTRDTSISTAYMELSRLRSDDTAVYYCARDSISSWDYWGQGTLVTVSS
VL: DIQMTQSPSSVSASVGDRVTITCRASQGVSRWLAWYQQKPGKAPKLLIYAASSLQSGVPSRFSGSGSGTDFTVTISSLQPEDFATYYCQQANSFPFTFGPGTKVDIK
notes: hybridoma mAb
B14: 148E10 (antibody, V domains shown)
VH: QVQLVESGGGVVQPGRSLRLSCAASGFTFSSYGMHWVRQAPGKGLEWVAVIWFDGSNKYYVDSVKDRFTISRDNSKNTLYLQMNSLRAEDTAVYYCARDRVEGSGTPYYYYGMDVWGQGTTVTVSS
VL: SYELTQPPSVSVSPGQTASITCSGDKLGNKYVCWYQQRPGHAAVLIIYQDSKRPSGIPERFSGSNSGNTATLTISGTQAMDEADYFCQAWDRNTYVVFGGGTKLTVL
notes: hybridoma mAb
B15: 22G5 (antibody, V domains shown)
VH: EVQLLESGGGLVQPGGSLRLSCAASGFTFSSYAMNWVRQAPGMGLEWVSVISRSGGYTYYADSVKGRFTISRDNSKNTLYLQMNSLRAEDTAVYYCASRLAVAGSEAFDIWGQGTLVTVSS
VL: DIQMTQSPSSLSASVGDRVTITCRASQNISSYLNWYQQKQGKAPKLLIYAASSLQNGVPSRFSGRGSGTDFTLTISSLQPEDFATYYCQQSYRTPLFTFGPGTKVDFK
notes: hybridoma mAb

Legend:
[1] = target: T1, recombinant, soluble human ASGR-1; assay: Octet BLI dissociation, pH 5.6 plus calcium
Protocol: (§1) The relative dissociation of ASGR-1 from antibodies was measured using a label-free assay on an OctetHTX instrument (Fortebio). Antibody samples were captured on anti-HuFc kinetic biosensors (ForteBio cat #18-5064) at 5 ug/mL in assay buffer (10 mM Tris, 0.1% Triton, 150 mM NaCl, 1 mg/mL BSA, 1 mM CaCl2, pH7.4) for three minutes. A one minute baseline stabilization step was performed in assay buffer. Soluble ASGR-1 (Amgen) at 6 ug/ml in assay buffer was added and association to the antibodies was monitored for two minutes. Subsequent dissociation of ASGR-1 from the antibodies was performed by incubating the ASGR-1-mAb complexes for 10 minutes under each of the following conditions:
(§2) The binding signal at the end of the 2 minute association phase for each dissociation experiment was set to 100% and used to represent the maximal level of ASGR-1 binding. After 1 minute of dissociation, the percentage of ASGR-1 remaining bound was calculated. The lower the percent remaining at a given time point indicates increased levels of dissociation in response to the test conditions (ie. different pH and/or calcium concentrations). The change in the percentage of ASGR-1 remaining bound in response to each test condition relative to the percent remaining in the control conditions (ie. pH 7.4+calcium) was determined. Cut-offs for an antibody to be categorized as being sensitive to a particular condition were set to >10% (ie. if >10% of the ASGR-1 dissociates from the antibody under a particular test condition compared to control condition, it was deemed sensitive to that condition). The analysis was done using the 1 minute dissociation time point (except for mAb 149A1 which was binned based on the 4 minute dissociation time point). Using this analysis, the ASGR-1-binding, receptor-ligand blocking antibodies were separated into groups according to their dissociation profiles in response to pH and calcium (Table 7.3). Antibodies belonging to each category were observed.

[2] = target: T1, recombinant, soluble human ASGR-1; assay: Octet BLI dissociation, pH 5.6 minus calcium
Protocol: as §1, §2

[3] = target: T1, recombinant, soluble human ASGR-1; assay: Octet BLI dissociation, pH 7.4 minus calcium
Protocol: as §1, §2

| Binder | % Change Compared to pH 7.4 + Calcium [1] | % Change Compared to pH 7.4 + Calcium [2] | % Change Compared to pH 7.4 + Calcium [3] |
| --- | --- | --- | --- |
| B1 | 29% | 49% | 48% |
| B2 | -1% | 2% | 5% |
| B3 | 4% | 15% | 7% |
| B4 | -2% | 8% | 4% |
| B5 | 0% | 9% | 6% |
| B6 | -5% | 2% | 3% |
| B7 | 1% | 13% | 15% |
| B8 | 1% | 13% | 15% |
| B9 | 3% | 13% | 9% |
| B10 | -2% | 4% | 5% |
| B11 | -6% | -1% | 1% |
| B12 | 13% | 29% | 13% |
| B13 | 12% | 29% | 17% |
| B14 | 19% | 33% | 7% |
| B15 | 35% |  | 40% |
